Test results published in patent US20190309060A1 (PHILOGEN S P A, published 2019).
Changes are numbered by the printed parent chain.

Key:
[1] = target: T1, human galectin-2, natively expressed (LS174T cells; human colon biopsy sections) (human, UniProt P05162 1-132); test: immunofluorescence of frozen healthy colon sections, biotinylated IgG, streptavidin-alexa 488
T1 construct: Cytoplasmic protein in fixed, methanol-permeabilized LS174T cells, and native protein in frozen colon sections; also called natively expressed galectin-2 antigen
T1 sequence: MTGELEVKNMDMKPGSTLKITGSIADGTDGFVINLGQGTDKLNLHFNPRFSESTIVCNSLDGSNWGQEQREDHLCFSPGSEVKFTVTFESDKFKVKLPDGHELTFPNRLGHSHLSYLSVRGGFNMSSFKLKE
Experimental: (§1) Detection of the primary antibody was performed with streptavidin-alexa 488 (Invitrogen). Blood vessels were detected using a mouse anti-human CD31 antibody (eBioscience) followed by detection with an anti-mouse alexa 594 antibody (Invitrogen). Counterstaining for cell nuclei was performed with DAPI (eBioscience).
(§2) (i) Freshly frozen colon biopsy samples from a healthy donor were stained according to already published methods (Pfaffen et al., Eur J Nucl Med Mol Imagin (2010) 37: 1559-65). Briefly, purified biotinylated antibodies in IgG format were added at the final concentration of 2 μg/ml onto the sections. Detection of the primary antibody was performed with streptavidin-alexa 488 (Invitrogen). Blood vessels were detected using a mouse anti-human CD31 antibody (eBioscience) followed by detection with an anti-mouse alexa 594 antibody (Invitrogen). Counterstaining for cell nuclei was performed with DAPI (eBioscience).
as §2, with “(ii)” for “(i)”, “Detection of the primary antibody was performed with streptavidin-alexa 488 (Invitrogen).” left out, “Counterstaining for cell nuclei was performed with DAPI (eBioscience).” left out

[2] = target: T2, human cadherin-17, native, in human ulcerative colitis biopsy sections (human, UniProt Q12864 23-832); test: immunofluorescence of frozen human ulcerative colitis sections, human IgG1 format, rabbit anti-human IgG and goat anti-rabbit Alexa 488
T2 construct: Native protein in tissue; also called cognate antigen (of AV17)
T2 sequence: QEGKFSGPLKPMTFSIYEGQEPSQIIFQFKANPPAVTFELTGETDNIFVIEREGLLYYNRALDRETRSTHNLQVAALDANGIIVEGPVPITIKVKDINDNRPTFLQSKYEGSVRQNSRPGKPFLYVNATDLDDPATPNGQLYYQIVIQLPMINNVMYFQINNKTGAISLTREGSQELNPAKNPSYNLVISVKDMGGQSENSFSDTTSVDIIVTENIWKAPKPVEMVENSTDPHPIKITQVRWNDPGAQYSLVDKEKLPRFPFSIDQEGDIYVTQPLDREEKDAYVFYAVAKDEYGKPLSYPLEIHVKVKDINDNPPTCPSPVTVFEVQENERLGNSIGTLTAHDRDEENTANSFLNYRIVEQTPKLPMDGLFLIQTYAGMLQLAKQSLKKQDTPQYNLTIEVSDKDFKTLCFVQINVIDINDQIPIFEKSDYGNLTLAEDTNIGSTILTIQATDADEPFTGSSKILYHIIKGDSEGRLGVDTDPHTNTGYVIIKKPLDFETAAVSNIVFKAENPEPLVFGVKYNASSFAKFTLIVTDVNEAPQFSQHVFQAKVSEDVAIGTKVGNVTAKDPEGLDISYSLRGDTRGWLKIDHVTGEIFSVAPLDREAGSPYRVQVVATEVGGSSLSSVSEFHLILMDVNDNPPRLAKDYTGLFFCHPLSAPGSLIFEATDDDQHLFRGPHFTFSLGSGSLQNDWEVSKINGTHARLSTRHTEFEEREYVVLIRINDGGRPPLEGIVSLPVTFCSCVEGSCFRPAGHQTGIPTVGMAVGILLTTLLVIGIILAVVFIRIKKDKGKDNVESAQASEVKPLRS
Experimental: Purified antibodies in human IgG1 format were added at the final concentration of 2 μg/ml to the sections. […] A positive control was performed by counterstaining for cell nuclei was performed with DAPI (eBioscience). Sections were mounted with fluorescent mounting medium (DAKO) followed by analysis using an Axioskop2 microscope with a 10× objective (Carl Zeiss AG, Jena, Germany). A stronger intensity signal in the colonic crypts region can be detected in the sections stained with CPR02, AV17 and FF06 when compared to the signal observed with an irrelevant antibody (Negative Control).
Freshly frozen human biopsy samples of Ulcerative Colitis were stained as described in the following lines. In brief, purified antibodies in human IgG1 format were added at the final concentration of 2 μg/ml to the sections. […] Further positive control was performed by counterstaining for cell nuclei was performed with DAPI (eBioscience). Sections were mounted with fluorescent mounting medium (DAKO) followed by analysis using an Axioskop2 microscope with a 10× objective (Carl Zeiss AG, Jena, Germany).

[3] = target: T3, human Agr2, native, in human colon biopsy sections (human, UniProt O95994 21-175); test: immunofluorescence of frozen healthy colon sections, biotinylated IgG, streptavidin-alexa 488
T3 construct: Native protein in healthy-donor colon and ulcerative colitis sections; also called human Agr2 antigen
T3 sequence: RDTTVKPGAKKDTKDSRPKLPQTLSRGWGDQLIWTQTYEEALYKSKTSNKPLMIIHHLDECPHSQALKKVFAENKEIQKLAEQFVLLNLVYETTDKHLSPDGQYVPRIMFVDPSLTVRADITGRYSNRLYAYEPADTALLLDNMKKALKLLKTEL
Experimental: as §1, §2
as §2, with “(ii)” for “(i)”, “Detection of the primary antibody was performed with streptavidin-alexa 488 (Invitrogen).” left out, “Counterstaining for cell nuclei was performed with DAPI (eBioscience).” left out

B1: FF06 in IgG format (antibody, V domains shown)
VH: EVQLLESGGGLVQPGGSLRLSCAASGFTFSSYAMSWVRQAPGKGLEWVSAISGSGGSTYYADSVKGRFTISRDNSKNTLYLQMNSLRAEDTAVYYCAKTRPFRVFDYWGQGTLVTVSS
VL: SSELTQDPAVSVALGQTVRITCQGDSLRSYYASWYQQKPGQAPVLVIYGKNNRPSGIPDRFSGSSSGNTASLTITGAQAEDEADYYCNSSRSRRPAVVFGGGTKLTVLG
notes: also called anti-Galectin-2 (FF06)
binding result [1]: binds

B2: AV17 in human IgG1 format (antibody, V domains shown)
VH: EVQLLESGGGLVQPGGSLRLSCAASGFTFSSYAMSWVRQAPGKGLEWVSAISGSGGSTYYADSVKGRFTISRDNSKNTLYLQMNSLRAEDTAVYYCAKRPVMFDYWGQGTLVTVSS
VL: B1 VL with R91L, S92P, R93S, R94P, P95Q, A96V
notes: Human IgG1 format; also called anti-cadherin 17 (AV17)
binding result [2]: binds

B3: CPR02 in IgG format (antibody, V domains shown)
VH: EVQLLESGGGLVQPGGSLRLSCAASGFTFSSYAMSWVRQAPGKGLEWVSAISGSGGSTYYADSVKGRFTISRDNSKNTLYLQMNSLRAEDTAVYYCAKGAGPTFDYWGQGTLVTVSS
VL: B1 VL with R91P, S92P, R93T, P95A, A96V
notes: also called anti-Agr2 (CPR02)
binding result [3]: binds
